experiment: soluble on expression in E. coli; label from the status in PepcDB or PDB records

Row | Sequence | soluble on expression in E. coli
1 | MGHHHHHHSHSSPEREITLVNLKKDAKYGLGFQIIGGEKMGRLDLGIFISSVAPGGPADLDGCLKPGDRLISVNSVSLEGVSHHAAIEILQNAPEDVTLVISQPKEKISKVPSTPVHLTNEMKNYMKKSSYMQDSAIDSSSKDHHWSRGTLRHISENSFGPSGGLREGSLSSQDSRTESASLSQSQVNGFFASHLGDQ | not soluble
2 | MSDNLVLPTYDDVASASERIKKFANKTPVLTSSTVNKEFVAEVFFKCENFQKMGAFKFRGALNALSQLNEAQRKAGVLTFSSGNHAQAIALSAKILGIPAKIIMPLDAPEAKVAATKGYGGQVIMYDRYKDDREKMAKEISEREGLTIIPPYDHPHVLAGQGTAAKELFEEVGPLDALFVCLGGGGLLSGSALAARHFAPNCEVYGVEPEAGNDGQQSFRKGSIVHIDTPKTIADGAQTQHLGNYTFSIIKEKVDDILTVSDEELIDCLKFYAARMKIVVEPTGCLSFAAARAMKEKLKNKRIGIIISGGNVDIERYAHFLSQ | soluble
3 | MHHHHHHSSGVDLGTENLYFQSMAAGGDHGSPDSYRSPLASRYASPEMCFVFSDRYKFRTWRQLWLWLAEAEQTLGLPITDEQIREMKSNLENIDFKMAAEEEKRLRHDVMAHVHTFGHCCPKAAGIIHLGATSCYVGDNTDLIILRNALDLLLPKLARVISRLADFAKERASLPTLGFTHFQPAQLTTVGKRCCLWIQDLCMDLQNLKRVRDDLRFRGVKGTTGTQASFLQLFEGDDHKVEQLDKMVTEKAGFKRAFIITGQTYTRKVDIEVLSVLASLGASVHKICTDIRLLANLKEMEEPFEKQQIGSSAMPYKRNPMRSERCCSLARHLMTLVMDPLQTASVQWFERTLDDSANRRICLAEAFLTADTILNTLQNISEGLVVYPKVIERRIRQELPFMATENIIMAMVKAGGSRQDCHEKIRVLSQQAASVVKQEGGDNDLIERIQVDAYFSPIHSQLDHLLDPSSFTGRASQQVQRFLEEEVYPLLKPYESVMKVKAE | soluble
4 | MSLTTMAEHFLTLLVVPAIKKDYGSQEDFTQVWNTTMKGLKCCGFTNYTDFEDSPYFKENSAFPPFCCNDNVTNTANETCTKQKAHDQKVEGCFNQLLYDIRTNAVTVGEGHHHHHH | not soluble
5 | MSLASATDSRYGQKESSDQNFDYMFKILIIGNSSVGKTSFLFRYADDSFTPAFVSTVGIDFKVKTIYRNDKRIKLQIWDTAGQERYRTITTAYYRGAMGFILMYDITNEESFNAVQDWSTQIKTYSWDNAQVLLVGNKCDMEDERVVSSERGRQLADHLGFEFFEASAKDNINVKQTFERLVDVICEKMSESLDTADPAVTGAKQGPQLSDQQVPPHQDCACEGHHHHHH | soluble
6 | MPYLNADRGKSGGYHIGHTLLWSSGKSRLEAIRYHVETSALEKIMFARLLSSERDEYSSEETEHRFDEGLQIYGYSPEDVSKARNKMAGFLAGWRHAVSVRRASMEQSADTEQ | soluble
7 | KNNPDPTIYPVLDWNDIKFQDVIGEGNFGQVLKARIKKDGLRMDAAIKRMKEYASKDDHRDFAGELEVLCKLGHHPNIINLLGACEHRGYLYLAIEYAPHGNLLDFLRKSRVLETDPAFAIANSTASTLSSQQLLHFAADVARGMDYLSQKQFIHRDLAARNILVGENYVAKIADFGLSRGQEVYVKKTMGRLPVRWMAIESLNYSVYTTNSDVWSYGVLLWEIVSLGGTPYCGMTCAELYEKLPQGYRLEKPLNCDDEVYDLMRQCWREKPYERPSFAQILVSLNRMLEERKTYVNTTLYEKFTYAGIDCSAEEAA | soluble
8 | MKVVLATGNPGKVRELKEGLAPLGWTLLTLADFALRMPKEEGATFLENALLKAAYVAKATGLPALADDSGLEVYALGGEPGVYSARYGGRATDRERNVYLLERMRHLKGEERKARFVAVLVLAYPDGHAEAYEGSVEGVILEAPRGEGGFGYDPLFYVPEAGKTFAEMGLEEKARYSHRGKALRALLEAYKDGPPPREVSKLE | soluble
9 | MAHHHHHHMVQLTINNARGVTLCRVSLPANATVQQLLLQLTVAKPELRQAQAIRNDVRHVTHRLTPASTTTTTTTSVVSSNAQTLLQAGLVGQGATAETLVVLMAADAPAAASSAAAAAPSPTKAVAAQILDLFGCASASPSAGVRSQASVVPSTMDERQLELQRRIYAQIQQQQIDENLANALEYTPEAFAKVTMLYVPCTINQVLVKAFVDSGAQNSIMNKRTAERCGLMRLVDVRMRGVAVGVGRQEICGRIHMTPVNLAGMYIPFAFYVIEDQAMDLIIGLDQLKRHQMMIDLKHNCLTIDNINVPFLPENDLPALAALGDDENAMHAPRHQDPATTATTASNPAAPVLSEGERQARIEGFMTVSGITDPTQAAELLEAADWNPNVAAALLFDT | soluble
10 | MDSKAKQMILSALCKHFSLDPEPFVGGAGESDIKTLYSNVLKASGKEVSAQNNDVLKWLDFAEGFSSDSKDWFSALEKLNLELATKSVLLGNGLTPSAADVAVFSALHSSVLGLSDSDKEKVPHVIRWVNYIQNKEELSTLFAPIPVKLPEFSFEVPKPAIKVETNSNSKKAAEGVKPVDKPDVQPQLGTKKTEPEEPKKNAAKEKDAKKEKKKPAEPEPAKKEAELSVSLLNIQVGLIRKAWKHPSADSLLVEEIDVGEDKVRQVVSGLAKFCSPEDLTNRLVALITNVKPGKLRDVMSQGLVLCASSEDHSVVEPLLPPAGAKPGERVSFSGIEGKPEDVLNPKKKQLEKITPGLYTDENGVATYKGIQFMTSAGPCTSSIPKATIK | soluble
11 | MTKLPQTQGVLNFIQKYLYNSTNYNFEDGSTQAINVPYPDSGVYENYILHYPDATSTELLDINIDQLYSEVMVLTDPKIERAYEYILEERDPGTSSTNILVTVGVE | not soluble
12 | MIYFIRKKKWLKQLEKGEAMKYAILIGDGMADYPIEKLGNRTILQAARTPAMDSIAARGRAGLAKTVPDSFPPGSDVANMSILGYDPATYYSGRAPLEAASMGVALAADDVAFRCNLITTEHGMIKDYSAGHISSDEAEILIDTLDYELSTENIRFYPGISYRHLIVAGNNLGAETECTPPHDITGEKIDKYLPRGKDGEFFSELIEASKVVLELHPVNLKRVEEGKNPANSIWVWGQGYAPKFTAFMKLYGKKGAVISAVDLLKGIGIYAGLDVIEVHGATGYLDTNYEGKVRAAIEALKTRDLVFVHVEAPDEAGHEGSIEKKLKAVEDFDSRIVAPILEYAENSDEPFTILVLPDHPTPISVKTHTRDPIPFAIYRTDKPETDNVEAFDEESVKNGSMGLVKASDLIGILIKSLEHHHHHH | soluble
13 | MHFKDLGLHDYTLKNLMYENNCCKFYDAVDENNISYVLKFVPSDVTSEGDTFPFVDRFQVKEGVFLVYSSNDFGKEGTDYFTYTGSGGNEVHISGTSSEAGIKPQFIETCHPKHLKRGTKEQEDINSSTSKKSAVINNFSGEKTPNPRPQSSNISERETYVGILNVKCKNKNSSKIRSEKLVSSVIETKHTPGLASILSKEGTTYPNNADGKHISIVNPSSKIYHSSHKQIVKTPIPKSGLSPIERCPFNGQNIKCYSPRPLDHESPQRDFNNNFQLRILKSSVLQRRQSTQNS | soluble
14 | NLREDGEKAAREVKLLLLGAGESGKSTFLKQMRIIHGQDFDQRAREEFRPTIYSNVIKGMRVLVDAREKLHIPWGDNKNQLHGDKLMAFDTRAPMAAQGMVETRVFLQYLPAIRALWEDSGIQNAYDRRREFQLGESVKYFLDNLDKLGVPDYIPSQQDILLARRPTKGIHETHFTFKDLHFKMFDVGGQRSERKKWFECFEGVTAIIFCVALSDYDQVLMEDRQTNRMHESMKLFDSICNNKWFTDTSIILFLNKKDLFEEKIKKSPLTICYPEYAGSNTYEEAAAYIQCQFEDLNKRKDTKEIYTHFTCATDTKNVQFVFDAVTDVIIKNNLKDCGLF | soluble
15 | MMKTLSSGNCTLSVPAKNSYRMVVLGASRVGKSSIVSRFLNGRFEDQYTPTIEDFHRKVYNIRGDMYQLDILDTSGNHPFPAMRRLSILTGDVFILVFSLDNRESFDEVKRLQKQILEVKSCLKNKTKEAAELPMVICGNKNDHGELCRQVPTTEAELLVSGDENCAYFEVSAKKNTNVDEMFYVLFSMAKLPHEMSPALHRKISVQYGDAFHPRPFCMRRVKEMDAYGMVSPFARRPSVNSDLKYIKAKVLREGQARERDKCTIQLEHHHHHH | soluble

— the DeepSol protein solubility set
